Experimental data from IntAct's records for PubMed 28380382.

B1: Complex III assembly factor LYRM7 (Homo sapiens), Q5U5X0 (parent)
chain: MGRAVKVLQLFKTLHRTRQQVFKNDARALEAARIKINEEFKNNKSETSSKKIEELMKIGSDVELLLRTSVIQGIHTDHNTLKLVPRKDLLVENVPYCDAPTQKQ
partner: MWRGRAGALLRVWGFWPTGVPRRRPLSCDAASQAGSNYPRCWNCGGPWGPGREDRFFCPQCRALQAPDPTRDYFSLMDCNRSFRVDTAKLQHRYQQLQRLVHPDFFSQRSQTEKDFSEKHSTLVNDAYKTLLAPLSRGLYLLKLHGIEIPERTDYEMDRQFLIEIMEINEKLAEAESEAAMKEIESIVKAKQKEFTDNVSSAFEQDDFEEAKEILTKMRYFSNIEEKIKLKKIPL

Variants of: B1
Details: with hsc20_human HSCB

Row | Variant | effect of a mutation on the interaction
1 | L10A;F11A;K12A | disrupting interaction strength
2 | V21A;F22A;K23A | with no effect
3 | D25N | with no effect
